Measurements published in patent EP0569583B1, “[…] OF POLYETHER-S[…] AGENTS IN DIAGNOSIS AND THERAPY” (Deutsches Krebsforschungszentrum Stiftung des öffentlichen …, priority 1991, dated 1993).

Key:
Ovarialcarcinom = assay: Whole-body distribution of radioiodine activity in tumour-bearing rat (Fig. 4, Fig. 5); type: in vivo, BDIX-Ratte
Method: (§1) Bei allen diesen Anwendungsversuchen wurden immer 300 µC = 11,1 MBq verabreicht Es zeigten sich mit den eingesetzten Mitteln, nämlich 1a und 1c und die Verbindung aus Beispiel 2 eine Konzentration von mindestens 30% des Mittels an der gewünschten Stelle, also am Tumor. Die beigefügte Fig. 4 zeigt das Bild einer BDIX-Ratte mit Ovarialcarcinom 42 h nach Injektion, die mit ^131J-HOPAD-CMPEG, also ^131J-Hydroxyphenyl-1-aminome-than-1,1-diphosphonat-Cyanurchlorid aktiviertes Polyethylenglykol (n=ca. 100 bis 110) in einer Menge von 300 µC behandelt war. Das Bild zeigt, daß ganz unten, im Tumor ca. 30+/-2% des Mittels konzentriert sind, während in der Mitte die Leber ca. 10% zeigt und die Schilddrüse, die oberhalb der Leber sichtbar ist, weit weniger als 2% des Mittels aufgenommen hat Diese %-Angaben beziehen sich auf die Gesamtmenge an die mit radiojodmarkierten Mittel im Gesamtkörper der Ratte.
Die beigefügte Fig. 5 zeigt die Messung einer mit ^131I-TOP-(CMPEG)4 behandelten BD IX Ratte (auch hier Ovarialcarcinom). Es zeigt sich ein ähnliches Ergebnis wie das von Fig. 4.
Von der gesamten Körperaktivität an radioaktivem Jod finden sich nach 150 h etwa 23% im Tumor, etwa 12% in der Leber, etwa 5% im Blut und etwa 3-4% jeweils in den Muskeln und in der Schilddrüse. Der Rest ist natürlich, wie auch bei der Aufnahme von Fig. 4, über den restlichen Körper verteilt.

[1] = test system: experimentelle Tumoren und Xenotransplantate; assay: Concentration of the radiolabelled agents in experimental tumours and human xenografts; type: in vivo, Ratte; Nacktmaus; settings: 300 µC = 11,1 MBq administered; all tumour models tested (Beispiel 2 compound only in Walker Carcinosarcom, Osteosarcom, Ovarialcarcinom O-342)
From the text: Die Konzentrierung dieser Mittel wurde an folgenden experimentellen Tumoren und an folgenden Tiermodellen geprüft:
Alle diese experimentellen Tumoren und Xenotransplantate wurden mit den Verbindungen a und c gemäß Beispiel 1 (also 1a und 1c) und drei davon, nämlich das Walker Carcinosarcom, das Osteosarcom und das Ovarialcarcinom (O-342) auch mit dem Diphosphat gemäß Beispiel 2 untersucht.
as §1

[2] = BDIX-Ratte with Ovarialcarcinom, 42 h after injection, 300 µC, % of total labelled agent in whole body (Fig. 4)
[3] = BD IX Ratte with Ovarialcarcinom, after 150 h, % of total body activity of radioactive iodine (Fig. 5)

^131J-Hydroxyphenyl-1-aminome-than-1,1-diphosphonat-Cyanurchlorid aktiviertes Polyethylenglykol (n=ca. 100 bis 110) [Beispiel 2]
Leber (Ovarialcarcinom; [2]): ca. 10% | Schilddrüse (Ovarialcarcinom; [2]): < 2% | im Tumor konzentriert (Ovarialcarcinom; [2]): ca. 30+/-2% | Konzentration des Mittels an der gewünschten Stelle, also am Tumor [1]: ≥ 30%

^111-In-Tetra-(hydroxyphenoxy)-phthalocyanin-(CMPEG)4 [1c]
Konzentration des Mittels an der gewünschten Stelle, also am Tumor [1]: ≥ 30%

^131I-Tetra(hydroxyphenyl)-porphin-(CMPEG)4 [1a]
im Blut (Ovarialcarcinom; [3]): ~5% | im Tumor (Ovarialcarcinom; [3]): ~23% | in den Muskeln (Ovarialcarcinom; [3]): 3-4% | in der Leber (Ovarialcarcinom; [3]): ~12% | in der Schilddrüse (Ovarialcarcinom; [3]): 3-4% | Konzentration des Mittels an der gewünschten Stelle, also am Tumor [1]: ≥ 30%
